US20200055939A1 (Genentech, published 2020)

T1: S291A
T1 construct: % monomer 83.21; also called MICA*008.mIgG2a S291A
T1 chain: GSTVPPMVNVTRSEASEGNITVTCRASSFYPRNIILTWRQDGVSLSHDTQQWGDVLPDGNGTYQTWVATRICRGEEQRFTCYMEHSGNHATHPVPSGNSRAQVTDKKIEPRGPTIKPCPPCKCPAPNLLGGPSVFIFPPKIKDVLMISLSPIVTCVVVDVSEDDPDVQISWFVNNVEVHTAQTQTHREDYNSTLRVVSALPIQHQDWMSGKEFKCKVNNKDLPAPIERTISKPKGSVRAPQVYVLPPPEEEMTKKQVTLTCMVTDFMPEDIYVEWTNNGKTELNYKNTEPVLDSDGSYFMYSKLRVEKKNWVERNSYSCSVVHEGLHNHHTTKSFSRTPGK

T2: T250A
T2 construct: % monomer 91.61; also called MICA*008.mIgG2a T250A
T2 chain: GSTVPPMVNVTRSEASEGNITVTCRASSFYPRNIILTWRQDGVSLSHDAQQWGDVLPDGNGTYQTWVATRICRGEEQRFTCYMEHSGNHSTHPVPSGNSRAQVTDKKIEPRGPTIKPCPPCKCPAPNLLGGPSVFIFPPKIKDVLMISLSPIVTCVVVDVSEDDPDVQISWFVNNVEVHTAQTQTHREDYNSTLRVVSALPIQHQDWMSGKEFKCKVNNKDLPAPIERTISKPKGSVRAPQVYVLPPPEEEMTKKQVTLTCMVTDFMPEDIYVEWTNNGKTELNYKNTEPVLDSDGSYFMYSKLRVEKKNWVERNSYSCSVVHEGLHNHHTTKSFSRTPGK

T3: D249A
T3 construct: % monomer 86.64; also called MICA*008.mIgG2a D249A
T3 chain: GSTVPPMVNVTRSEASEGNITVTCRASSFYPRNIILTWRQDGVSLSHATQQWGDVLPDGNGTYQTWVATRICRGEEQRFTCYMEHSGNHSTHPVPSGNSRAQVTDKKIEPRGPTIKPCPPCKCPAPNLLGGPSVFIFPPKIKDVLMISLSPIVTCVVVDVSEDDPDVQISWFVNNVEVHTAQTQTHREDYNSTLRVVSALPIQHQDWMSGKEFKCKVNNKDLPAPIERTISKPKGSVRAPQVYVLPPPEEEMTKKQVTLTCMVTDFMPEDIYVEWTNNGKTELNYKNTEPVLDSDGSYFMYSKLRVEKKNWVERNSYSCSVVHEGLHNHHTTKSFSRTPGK

T4: G288A
T4 construct: % monomer 95.3; also called MICA*008.mIgG2a G288A
T4 chain: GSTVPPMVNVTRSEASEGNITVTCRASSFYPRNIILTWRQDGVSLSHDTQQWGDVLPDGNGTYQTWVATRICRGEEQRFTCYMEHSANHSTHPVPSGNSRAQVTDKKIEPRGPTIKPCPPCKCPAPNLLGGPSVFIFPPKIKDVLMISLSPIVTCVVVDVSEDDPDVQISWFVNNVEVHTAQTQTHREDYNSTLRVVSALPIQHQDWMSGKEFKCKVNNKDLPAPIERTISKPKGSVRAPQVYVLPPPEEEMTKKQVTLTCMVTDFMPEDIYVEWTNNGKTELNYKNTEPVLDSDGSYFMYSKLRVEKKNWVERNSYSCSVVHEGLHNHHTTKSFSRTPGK

T5: Q278A
T5 construct: % monomer 92.32; also called MICA*008.mIgG2a Q278A
T5 chain: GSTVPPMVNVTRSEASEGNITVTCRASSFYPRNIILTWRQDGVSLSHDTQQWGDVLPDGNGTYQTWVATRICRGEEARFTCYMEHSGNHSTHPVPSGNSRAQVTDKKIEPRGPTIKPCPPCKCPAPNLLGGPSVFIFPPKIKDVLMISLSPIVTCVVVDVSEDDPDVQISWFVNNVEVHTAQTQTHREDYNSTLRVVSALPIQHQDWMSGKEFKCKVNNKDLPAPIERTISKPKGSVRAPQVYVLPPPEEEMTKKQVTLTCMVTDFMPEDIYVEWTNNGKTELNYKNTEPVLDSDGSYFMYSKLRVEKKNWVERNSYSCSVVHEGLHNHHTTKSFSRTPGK

T6: Q241A (Fc fusion, a disulfide-linked homodimer; one chain given.)
T6 construct: % monomer 97.6; also called MICA*008.mIgG2a Q241A
T6 chain: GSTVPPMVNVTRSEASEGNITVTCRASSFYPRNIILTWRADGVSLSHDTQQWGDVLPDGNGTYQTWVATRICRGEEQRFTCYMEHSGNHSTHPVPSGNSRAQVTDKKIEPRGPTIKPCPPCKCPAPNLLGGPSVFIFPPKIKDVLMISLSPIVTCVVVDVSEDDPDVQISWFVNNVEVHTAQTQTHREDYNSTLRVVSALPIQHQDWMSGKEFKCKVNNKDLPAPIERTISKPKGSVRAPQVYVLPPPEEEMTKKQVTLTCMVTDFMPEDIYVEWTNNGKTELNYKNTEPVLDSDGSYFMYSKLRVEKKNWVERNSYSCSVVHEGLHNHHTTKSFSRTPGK

T7: P294A
T7 construct: % monomer 89.16; also called MICA*008.mIgG2a P294A
T7 chain: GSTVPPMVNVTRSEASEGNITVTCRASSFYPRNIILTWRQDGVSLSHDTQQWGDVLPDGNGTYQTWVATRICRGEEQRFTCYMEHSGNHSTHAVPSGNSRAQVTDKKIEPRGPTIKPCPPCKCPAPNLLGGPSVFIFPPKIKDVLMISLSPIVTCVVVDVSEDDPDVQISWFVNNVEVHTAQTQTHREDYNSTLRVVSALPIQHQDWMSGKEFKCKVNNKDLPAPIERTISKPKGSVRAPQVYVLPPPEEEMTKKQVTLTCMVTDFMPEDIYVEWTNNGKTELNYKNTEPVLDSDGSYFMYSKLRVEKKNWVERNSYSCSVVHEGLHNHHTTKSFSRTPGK


Legend:
Test in all cases: SPR, Fab over captured MICA*008.mIgG2a Ala variant; KD relative to wild type
S291A = target: T1, S291A
T250A = target: T2, T250A
D249A = target: T3, D249A
G288A = target: T4, G288A
Q278A = target: T5, Q278A
Q241A = target: T6, Q241A
P294A = target: T7, P294A

fold-decrease in affinity (S291A)	fold-decrease in affinity (T250A)	fold-decrease in affinity (D249A)	fold-decrease in affinity (G288A)	fold-decrease in affinity (Q278A)	fold-decrease in affinity (Q241A)	fold-decrease in affinity (P294A)	Binder
2.7	0.5	0.8	1	0.5	1.1	0.9	6F8.7 Fab (Fab, V domains shown) VH: DVQLQGSGPGLVKPSQSLSLTCSVTGYSITNDYYWNWIRQFPGNKLEWMGFISFGGSNNYNPSLKNRISITRDTSKNQFFLKLSSVTTEDTATYYCARYDGRGAWFAYWAQGTLVTVSA VL: DIQMTQSPASLSASVGETVTITCRASGNIHNYLAWYQQKQGKSPQLLVYDAITLADGVPSRFSGSGSGTQYSLKINSLQPEDFGNYYCQHFWSFPLTFGAGTKVEIK
2.7	0.6	0.7	0.8	4.9	0.4	1	7D4.6 Fab (Fab, V domains shown) VH: DVQLQESGPGLVKPSQSLSLTCTVTGYSITSDYAWNWIRQFPRNKLEWMGYINYSGTTNYNPSLKSRISITRDTSKNQFFLQLISVTTEDTATYYCSYYRYDGAWFPYWGQGTLVTVSA VL: DIQMTQSPASLSASVGETVTITCRASGNIHNYLAWYQQKQGKSPQLLVYNAIMLADGVPSRFSASGSGTQYSLKINSLQPEDFGSYYCQHFWSFPLTFGAGTKVEIK
1.1	8.8	–	1	0.7	–	1	1D5 Fab (Fab, V domains shown, Expressed in E. coli as chimera of murine variable and human constant domains; not shown: human IgG1 CH1 constant domain; human kappa CL constant domain) VH: EIQLQQSGPELVKPGASVKVSCKASGYAFTSQNIYWVKQSHGKSLEWIGYIEPYNVVPMYNPKFKGKATLTVDKSSSSAYIHLNSLTSEDSAIYYCARSGSSNFDYWGQGTTLTVSS VL: EIILTQSPTTMAASPGEKITITCSASSSISSHYLHWYQQKSGFSPKLLIYRTSNLASGVPARFSGSGSGTSYSLTIGTMEAEDVATYYCQQGSSLPLTFGAGTKVEIK
1.1	1.2	1	0.6	1	1.1	1	2E5.2.3 Fab (Fab, V domains shown) VH: QGQMQQSGAELVKPGASVKLSCKTSGFTFSDNYISWLKQKPGQSLEWIAWIYAGTGGTSYNQKFTAKAQLTVDTSSSTAYMQFSSLTTEDSAIYYCARHDYYGTSGAWFAYWGQGTLVTVSA VL: DVLMTQTPLSLPVSLGDQASLSCRSSQNIVHINGNTYLEWYLQKPGQSPKLLIYKVSNRFSGVPDRFSGSGSGTDFTLKISRVEAEDLGVYYCFQGSHVPWTFGGGTKVEIK
